Data from article PMC5582858, “The yeast kinesin-5 Cin8 interacts with the microtubule in a noncanonical manner” (The Journal of Biological Chemistry, 2017).

Assays:
[1] = target: T1, Subtilisin-treated microtubules (lacking the C-terminal tails of α- and β-tubulin) (bovine, UniProt Q6B856 1-445, Purified bovine brain tubulin is an isotype mixture; the representative isotypes alpha-1B and beta-2B are assumed, as the paper states none. Cleavage limits are not given; the conventional major sub); experiment: co-sedimentation; 2 μM kinesin, 0–4 μM paclitaxel-stabilised microtubules, no added nucleotide, high ionic strength (88 mM; ATPase buffer with 75 mM KCl), 298 K, 100,000 × g 30 min; supernatant and pellet by SDS-PAGE; apparent constants, fit to Equation 3; conditions: both partners purified
T1 sequence (chain, as listed by the source, chain 1 of 2): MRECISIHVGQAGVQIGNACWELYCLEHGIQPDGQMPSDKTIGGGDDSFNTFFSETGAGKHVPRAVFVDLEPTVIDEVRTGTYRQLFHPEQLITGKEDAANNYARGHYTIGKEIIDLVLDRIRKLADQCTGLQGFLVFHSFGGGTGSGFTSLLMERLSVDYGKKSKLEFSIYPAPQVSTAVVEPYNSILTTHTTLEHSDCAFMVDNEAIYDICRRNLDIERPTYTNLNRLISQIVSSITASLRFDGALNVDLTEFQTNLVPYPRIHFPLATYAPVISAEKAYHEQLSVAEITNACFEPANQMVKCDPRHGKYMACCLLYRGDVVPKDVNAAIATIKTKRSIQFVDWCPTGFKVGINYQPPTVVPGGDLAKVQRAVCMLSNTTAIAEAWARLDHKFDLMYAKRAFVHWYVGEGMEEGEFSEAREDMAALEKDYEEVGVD
T1 sequence (Q6B856 1-433, chain 2 of 2): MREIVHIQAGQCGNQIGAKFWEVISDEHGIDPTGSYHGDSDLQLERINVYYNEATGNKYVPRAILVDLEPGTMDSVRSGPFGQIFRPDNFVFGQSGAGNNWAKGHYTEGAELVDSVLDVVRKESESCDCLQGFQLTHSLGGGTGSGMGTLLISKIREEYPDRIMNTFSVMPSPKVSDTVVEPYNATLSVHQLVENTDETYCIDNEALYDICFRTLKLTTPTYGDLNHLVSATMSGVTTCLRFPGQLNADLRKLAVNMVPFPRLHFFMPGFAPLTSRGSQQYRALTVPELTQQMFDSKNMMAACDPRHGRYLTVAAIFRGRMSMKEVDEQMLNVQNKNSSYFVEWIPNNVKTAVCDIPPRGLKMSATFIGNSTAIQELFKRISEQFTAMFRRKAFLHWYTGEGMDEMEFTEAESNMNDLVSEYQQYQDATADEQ

[2] = target: T1, Subtilisin-treated microtubules …; experiment: co-sedimentation; 2 μM kinesin, 0–4 μM paclitaxel-stabilised microtubules, no added nucleotide, low ionic strength (21 mM; ATPase buffer with 7.5 mM KCl), 298 K, 100,000 × g 30 min; supernatant and pellet by SDS-PAGE; apparent constants, fit to Equation 3; conditions: both partners purified

B1: Cin8-trx (Cin8 motor domain, residues 70–535, fused to N-terminal thioredoxin (TrxA), His6, TEV cleavage and Arg9 tags) (domain or fragment, S. cerevisiae, UniProt P27895 70-535, looked up)
chain: ISINTTGDTGITAQMNAKRYTVDKVFGPGASQDLIFDEVAGPLFQDFIKGYNCTVLVYGMTSTGKTYTMTGDEKLYNGELSDAAGIIPRVLLKLFDTLELQQNDYVVKCSFIELYNEELKDLLDSNSNGSSNTGFDGQFMKKLRIFDSSTANNTTSNSASSSRSNSRNSSPRSLNDLTPKAALLRKRLRTKSLPNTIKQQYQQQQAVNSRNNSSSNSGSTTNNASSNTNTNNGQRSSMAPNDQTNGIYIQNLQEFHITNAMEGLNLLQKGLKHRQVASTKMNDFSSRSHTIFTITLYKKHQDELFRISKMNLVDLAGSENINRSGALNQRAKEAGSINQSLLTLGRVINALVDKSGHIPFRESKLTRLLQDSLGGNTKTALIATISPAKVTSEETCSTLEYASKAKNIKNKPQLGSFIMKDILVKNITMELAKIKSDLLSTKSKEGIYMSQDHYKNLNSDLESYKN
notes: Kinesin-5 Cin8, S. cerevisiae, motor domain, residues 70–535; Expected mass 67.3 kDa; source: E. coli B834(DE3) with pRILP, purified (SP-Sepharose, nickel-nitrilotriacetic acid, Sephadex G-25); not shown: thioredoxin (TrxA), N-terminal, kept; His6, N-terminal, kept; TEV cleavage tag, N-terminal, kept; Arg9, N-terminal, kept
In the case of B1, the “stoichiometry N” value [1] is reported as 2.2 ± 0.2 and the “stoichiometry N” value [2] is reported as 5.4 ± 0.4.
